Data set [1] concerns HeLa Kyoto. The data set is described as follows: solubility in G1/S (NP-40 vs SDS abundance) (log2 ratio); higher = more soluble. Particulars: cell cycle stage: G1/S.
The subject of data set [2] is HeLa Kyoto. In words: thermal stability score vs G1/S (z-score of summed log2 fold changes over temperatures); higher = more thermally stable than in G1/S.
Data set [3] has as its system HeLa Kyoto. The data set is described as follows: solubility change mitosis vs G1/S (difference of NP-40 vs SDS log2 ratios) (log2 ratio difference); higher = more soluble in mitosis.
In data set [4] the test system is HeLa Kyoto. In words: melting temperature (median over replicates), in situ; higher = more thermally stable.
The mark [5] stands for this setting: cell cycle stage: early G1 (4.5 h after nocodazole release).
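Wherever melting temperature (median over replicates), in situ is given: HeLa Kyoto cells synchronized by double thymidine or nocodazole block, proteins quantified by TMT10plex mass spectrometry, three independent biological replicates.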
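Wherever solubility change mitosis vs G1/S (difference of NP-40 vs SDS log2 ratios) is given: synchronized HeLa Kyoto cells (double thymidine block for G1/S, nocodazole release for mitosis), protein amounts in NP-40 versus SDS lysates quantified by mass spectrometry, three biological replicates.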
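Wherever solubility in G1/S (NP-40 vs SDS abundance) is given: HeLa Kyoto cells arrested at G1/S by double thymidine block, proteins quantified by TMT10plex mass spectrometry in mild NP-40 versus SDS extracts, three biological replicates.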
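Wherever thermal stability score vs G1/S (z-score of summed log2 fold changes over temperatures) is given: synchronized HeLa Kyoto cells, proteins quantified by TMT10plex mass spectrometry, three biological replicates, mitosis taken 0.5 h after nocodazole release, G1/S directly after double thymidine block.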

Turning to “MAAATADPGAGNPQPGDSSGGGAGGGLPSPGEQELSRRLQRLYPAVNQQETPLPRSWSPKDKYNYIGLSQGNLRVHYKGHGKNHKDAASVRATHPIPAACGIYYFEVKIVSKGRDGYMGIGLSAQGVNMNRLPGWDKHSYGYHGDDGHSFCSSGTGQPYGPTFTTGDVIGCCVNLINGTCFYTKNGHSLGIAFTDLPANLYPTVGLQTPGEIVDANFGQQPFLFDIEDYMREWRAKVQGTVHCFPISARLGEWQAVLQNMVSSYLVHHGYCATATAFARMTETPIQEEQASIKNRQKIQKLVLEGRVGEAIETTQRFYPGLLEHNPNLLFMLKCRQFVEMVNGTDSEVRSLSSRSPKSQDSYPGSPSLSPRHGPSSSHMHNTGADSPSCSNGVASTKSKQNHSKYPAPSSSSSSSSSSSSSSPSSVNYSESNSTDSTKSQHHSSTSNQETSDSEMEMEAEHYPNGVLGSMSTRIVNGAYKHEDLQTDESSMDDRHPRRQLCGGNQAATERIILFGRELQALSEQLGREYGKNLAHTEMLQDAFSLLAYSDPWSCPVGQQLDPIQREPVCAALNSAILESQNLPKQPPLMLALGQASECLRLMARAGLGSCSFARVDDYLH [RANBP10]”, the “solubility in G1/S (log2)” value with HeLa Kyoto [1] came out at 0.151. Moreover, the thermal stability score with HeLa Kyoto [2] (setting [5]) was found to be 0.428; with HeLa Kyoto [2] (cell cycle stage: mitosis), 0.506. Moreover, the “solubility change mitosis (log2)” value with HeLa Kyoto [3] is -0.193. Also, the results for the melting temperature in the data set on HeLa Kyoto [4] (cell cycle stage: G1/S) and with HeLa Kyoto [4] (cell cycle stage: mitosis) were 51.4 °C and 51.1 °C, respectively.
On to “MAAAVAAAGAGEPQSPDELLPKGDAEKPEEELEEDDDEELDETLSERLWGLTEMFPERVRSAAGATFDLSLFVAQKMYRFSRAALWIGTTSFMILVLPVVFETEKLQMEQQQQLQQRQILLGPNTGLSGGMPGALPSLPGKI [TOMM22]”, for which the “solubility in G1/S (log2)” value in the data set on HeLa Kyoto [1] is -0.782. Besides, the thermal stability score in the data set with HeLa Kyoto [2] (setting [5]) is -3.84; with HeLa Kyoto [2] (cell cycle stage: mitosis), -4.82. Moreover, in the data set with HeLa Kyoto [3], the “solubility change mitosis (log2)” value worked out at 0.211. Moreover, the melting temperature in the data set on HeLa Kyoto [4] (cell cycle stage: G1/S) is 53.4 °C; with HeLa Kyoto [4] (cell cycle stage: mitosis), 52.8 °C.
“MAAAVAAAGRLGWLFAALCLGNAAGEAAPGPRVLGFCLEEDGAAGAGWVRGGAARDTPDATFLLRLFGPGFANSSWSWVAPEGAGCREEAASPAGEWRALLRLRLRAEAVRPHSALLAVRVEPGGGAAEEAAPPWALGLGAAGLLALAALARGLQLSALALAPAEVQVLRESGSEAERAAARRLEPARRWAGCALGALLLLASLAQAALAVLLYRAAGQRAVPAVLGSAGLVFLVGEVVPAAVSGRWTLALAPRALGLSRLAVLLTLPVALPVGQLLELAARPGRLRERVLELARGGGDPYSDLSKGVLRCRTVEDVLTPLEDCFMLDASTVLDFGVLASIMQSGHTRIPVYEEERSNIVDMLYLKDLAFVDPEDCTPLSTITRFYNHPLHFVFNDTKLDAVLEEFKRGKSHLAIVQKVNNEGEGDPFYEVLGLVTLEDVIEEIIRSEILDESEDYRDTVVKRKPASLMAPLKRKEEFSLFKVSDDEYKVTISPQLLLATQRFLSREVDVFSPLRISEKVLLHLLKHPSVNQEVRFDESNRLATHHYLYQRSQPVDYFILILQGRVEVEIGKEGLKFENGAFTYYGVSALTVPSSVHQSPVSSLQPIRHDLQPDPGDGTHSSAYCPDYTVRALSDLQLIKVTRLQYLNALLATRAQNLPQSPENTDLQVIPGSQTRLLGEKTTTAAGSSHSRPGVPVEGSPGRNPGV [CNNM3]”: in the data set on HeLa Kyoto [1], the “solubility in G1/S (log2)” value is 0.0405. In addition, the figures for the thermal stability score with HeLa Kyoto [2] (setting [5]) and with HeLa Kyoto [2] (cell cycle stage: mitosis) were -0.222 and -0.298, respectively. Moreover, the “solubility change mitosis (log2)” value with HeLa Kyoto [3] was -0.00872. In addition, the results for the melting temperature in the data set with HeLa Kyoto [4] (cell cycle stage: G1/S) and with HeLa Kyoto [4] (cell cycle stage: mitosis) were 52.3 °C and 51.3 °C, respectively.
For “MAAAVAAAPGALGSLHAGGARLVAACSAWLCPGLRLPGSLAGRRAGPAIWAQGWVPAAGGPAPKRGYSSEMKTEDELRVRHLEEENRGIVVLGINRAYGKNSLSKNLIKMLSKAVDALKSDKKVRTIIIRSEVPGIFCAGADLKERAKMSSSEVGPFVSKIRAVINDIANLPVPTIAAIDGLALGGGLELALACDIRVAASSAKMGLVETKLAIIPGGGGTQRLPRAIGMSLAKELIFSARVLDGKEAKAVGLISHVLEQNQEGDAAYRKALDLAREFLPQGPVAMRVAKLAINQGMEVDLVTGLAIEEACYAQTIPTKDRLEGLLAFKEKRPPRYKGE [AUH]”, the “solubility in G1/S (log2)” value in the data set with HeLa Kyoto [1] came out at 0.261. The values for the thermal stability score in the data set on HeLa Kyoto [2] (setting [5]) and with HeLa Kyoto [2] (cell cycle stage: mitosis) were 0.266 and 1.09, respectively. Moreover, in the data set on HeLa Kyoto [3], the “solubility change mitosis (log2)” value was -0.0164. Also, the melting temperature in the data set with HeLa Kyoto [4] (cell cycle stage: G1/S) and in the data set with HeLa Kyoto [4] (cell cycle stage: mitosis) was 51.6 °C each time.
“MAACTARRALAVGSRWWSRSLTGARWPRPLCAAAGAGAFSPASTTTTRRHLSSRNRPEGKVLETVGVFEVPKQNGKYETGQLFLHSIFGYRGVVLFPWQARLYDRDVASAAPEKAENPAGHGSKEVKGKTHTYYQVLIDARDCPHISQRSQTEAVTFLANHDDSRALYAIPGLDYVSHEDILPYTSTDQVPIQHELFERFLLYDQTKAPPFVARETLRAWQEKNHPWLELSDVHRETTENIRVTVIPFYMGMREAQNSHVYWWRYCIRLENLDSDVVQLRERHWRIFSLSGTLETVRGRGVVGREPVLSKEQPAFQYSSHVSLQASSGHMWGTFRFERPDGSHFDVRIPPFSLESNKDEKTPPSGLHW [POLDIP2]”: in the data set with HeLa Kyoto [1], the “solubility in G1/S (log2)” value was 0.07. Also, the thermal stability score was 0.146 with HeLa Kyoto [2] (setting [5]) and -0.814 in the data set with HeLa Kyoto [2] (cell cycle stage: mitosis). Further, the “solubility change mitosis (log2)” value in the data set with HeLa Kyoto [3] was -0.0327. Further, the melting temperature with HeLa Kyoto [4] (cell cycle stage: G1/S) worked out at 50.9 °C; with HeLa Kyoto [4] (cell cycle stage: mitosis) it was 51.4 °C.
Take “MAAEDELQLPRLPELFETGRQLLDEVEVATEPAGSRIVQEKVFKGLDLLEKAAEMLSQLDLFSRNEDLEEIASTDLKYLLVPAFQGALTMKQVNPSKRLDHLQRAREHFINYLTQCHCYHVAEFELPKTMNNSAENHTANSSMAYPSLVAMASQRQAKIQRYKQKKELEHRLSAMKSAVESGQADDERVREYYLLHLQRWIDISLEEIESIDQEIKILRERDSSREASTSNSSRQERPPVKPFILTRNMAQAKVFGAGYPSLPTMTVSDWYEQHRKYGALPDQGIAKAAPEEFRKAAQQQEEQEEKEEEDDEQTLHRAREWDDWKDTHPRGYGNRQNMG [IGBP1]”: the “solubility in G1/S (log2)” value in the data set with HeLa Kyoto [1] stood at 0.454. The results for the thermal stability score in the data set with HeLa Kyoto [2] (setting [5]) and in the data set on HeLa Kyoto [2] (cell cycle stage: mitosis) were -0.476 and -0.0586, respectively. In addition, the “solubility change mitosis (log2)” value in the data set on HeLa Kyoto [3] is 0.103. The melting temperature with HeLa Kyoto [4] (cell cycle stage: G1/S) came out at 50.7 °C; with HeLa Kyoto [4] (cell cycle stage: mitosis) it was 51.4 °C.

The values are drawn from the supplement of paper PMC5998384.
